Test results reported in publication PMC4860839, “Structures of the APC–ARM domain in complexes with discrete Amer1/WTX fragments reveal that it uses a consensus mode to recognize its binding partners” (Cell Discovery, 2015).

B1: pBTM-APC–ARM (residues 308–789), two-hybrid bait [human] / Amer1-A1 (murine, residues 279–367), two-hybrid prey [murine] (parent complex)
chain 1: LGTKVEMVYSLLSMLGTHDKDDMSRTLLAMSSSQDSCISMRQSGCLPLLIQLLHGNDKDSVLLGNSRGSKEARARASAALHNIIHSQPDDKRGRREIRVLHLLEQIRAYCETCWEWQEAHEPGMDQDKNPMPAPVEHQICPAVCVLMKLSFDEEHRHAMNELGGLQAIAELLQVDCEMYGLTNDHYSITLRRYAGMALTNLTFGDVANKATLCSMKGCMRALVAQLKSESEDLQQVIASVLRNLSWRADVNSKKTLREVGSVKALMECALEVKKESTLKSVLSALWNLSAHCTENKADICAVDGALAFLVGTLTYRSQTNTLAIIESGGGILRNVSSLIATNEDHRQILRENNCLQTLLQHLKSHSLTIVSNACGTLWNLSARNPKDQEALWDMGAVSMLKNLIHSKHKMIAMGSAAALRNLMANRPAKYKDANIMSPGSSLPSLHVRKQKALEAELDAQHLSETFDNIDNLSPKASHRSKQ
chain 2: SLEEPHTSETEGKVVAGEVNPPNGPVGDQLSLLFGDVTSLKSFDSLTGCGDIIAEQDMDSMTDSMASGGQRANRDGTKRSSCLVTYQGG

Variants of: B1
Assay: yeast two-hybrid assay (relative β-galactosidase reporter activity); parent: 100

| Variant | percent of parent |
| --- | --- |
| chain 1 LGTKVEMVYSLLSMLGTHDKDDMSRTLLAMSSSQDSCISMRQSGCLPLLIQLLHGNDKDSVLLGNSRGSKEARARASAALHNIIHSQPDDKRGRREIRVLHLLEQIRAYCETCWEWQEAHEPGMDQDKNPMPAPVEHQICPAVCVLMKLSFDEEHRHAMNELGGLQAIAELLQVDCEMYGLTNDHYSITLRRYAGMALTKLTFGDVANKATLCSMKGCMRALVAQLKSESEDLQQVIASVLRNLSWRADVNSKKTLREVGSVKALMECALEVKKESTLKSVLSALWNLSAHCTENKADICAVDGALAFLVGTLTYRSQTNTLAIIESGGGILRNVSSLIATNEDHRQILRENNCLQTLLQHLKSHSLTIVSNACGTLWNLSARNPKDQEALWDMGAVSMLKNLIHSKHKMIAMGSAAALRNLMANRPAKYKDANIMSPGSSLPSLHVRKQKALEAELDAQHLSETFDNIDNLSPKASHRSKQ [chain 1 N200K] | 1.86% |
| chain 1 LGTKVEMVYSLLSMLGTHDKDDMSRTLLAMSSSQDSCISMRQSGCLPLLIQLLHGNDKDSVLLGNSRGSKEARARASAALHNIIHSQPDDKRGRREIRVLHLLEQIRAYCETCWEWQEAHEPGMDQDKNPMPAPVEHQICPAVCVLMKLSFDEEHRHAMNELGGLQAIAELLQVDCEMYGLTNDHYSITLRRYAGMALTNLTFGDVANKATLCSMKGCMRALVAQLKSESEDLQQVIASVLENLSWRADVNSKKTLREVGSVKALMECALEVKKESTLKSVLSALWNLSAHCTENKADICAVDGALAFLVGTLTYRSQTNTLAIIESGGGILRNVSSLIATNEDHRQILRENNCLQTLLQHLKSHSLTIVSNACGTLWNLSARNPKDQEALWDMGAVSMLKNLIHSKHKMIAMGSAAALRNLMANRPAKYKDANIMSPGSSLPSLHVRKQKALEAELDAQHLSETFDNIDNLSPKASHRSKQ [chain 1 R242E] | 1.48% |
| chain 1 LGTKVEMVYSLLSMLGTHDKDDMSRTLLAMSSSQDSCISMRQSGCLPLLIQLLHGNDKDSVLLGNSRGSKEARARASAALHNIIHSQPDDKRGRREIRVLHLLEQIRAYCETCWEWQEAHEPGMDQDKNPMPAPVEHQICPAVCVLMKLSFDEEHRHAMNELGGLQAIAELLQVDCEMYGLTNDHYSITLRRYAGMALTNLTFGDVANKATLCSMKGCMRALVAQLKSESEDLQQVIASVLRNLSWRADVNSKKTLREVGSVKALMECALEVKKESTLKSVLSALWNLSAHCTENKADICAVDGALAFLVGTLTYRSQTNTLAIIESGGGILRNVSSLIATNEDHRQILRENNCLQTLLQHLKSHSLTIVSNACGTLWNLSARNPKDQEALWDMGAVSMLKNLIHSKHKMIAMGSAAALENLMANRPAKYKDANIMSPGSSLPSLHVRKQKALEAELDAQHLSETFDNIDNLSPKASHRSKQ [chain 1 R420E] | 41.3% |
| chain 1 LGTKVEMVYSLLSMLGTHDKDDMSRTLLAMSSSQDSCISMRQSGCLPLLIQLLHGNDKDSVLLGNSRGSKEARARASAALHNIIHSQPDDKRGRREIRVLHLLEQIRAYCETCWEWQEAHEPGMDQDKNPMPAPVEHQICPAVCVLMKLSFDEEHRHAMNELGGLQAIAELLQVDCEMYGLTNDHYSITLRRYAGMALTNLTFGDVANKATLCSMKGCMRALVAQLKSESEDLQQVIASVLRKLSWRADVNSKKTLREVGSVKALMECALEVKKESTLKSVLSALWNLSAHCTENKADICAVDGALAFLVGTLTYRSQTNTLAIIESGGGILRNVSSLIATNEDHRQILRENNCLQTLLQHLKSHSLTIVSNACGTLWNLSARNPKDQEALWDMGAVSMLKNLIHSKHKMIAMGSAAALRNLMANRPAKYKDANIMSPGSSLPSLHVRKQKALEAELDAQHLSETFDNIDNLSPKASHRSKQ [chain 1 N243K] | 0.38% |
| chain 1 LGTKVEMVYSLLSMLGTHDKDDMSRTLLAMSSSQDSCISMRQSGCLPLLIQLLHGNDKDSVLLGNSRGSKEARARASAALHNIIHSQPDDKRGRREIRVLHLLEQIRAYCETCWEWQEAHEPGMDQDKNPMPAPVEHQICPAVCVLMKLSFDEEHRHAMNELGGLQAIAELLQVDCEMYGLTNDHYSITLRRYAGMALTNLTFGDVANKATLCSMKGCMRALVAQLKSESEDLQQVIASVLRNLSWRADVNSKKTLREVGSVKALMECALEVKKESTLKSVLSALWNLSAHCTENKADICAVDGALAFLVGTLTYRSQTNTLAIIESGGGILRNVSSLIATNEDHRQILRENNCLQTLLQHLKSHSLTIVSNACGTLWNLSARNPKDQEALWDMGAVSMLKNLIHSKHKKIAMGSAAALRNLMANRPAKYKDANIMSPGSSLPSLHVRKQKALEAELDAQHLSETFDNIDNLSPKASHRSKQ [chain 1 M410K] | 33.7% |
| chain 1 LGTKVEMVYSLLSMLGTHDKDDMSRTLLAMSSSQDSCISMRQSGCLPLLIQLLHGNDKDSVLLGNSRGSKEARARASAALHNIIHSQPDDKRGRREIRVLHLLEQIRAYCETCWEWQEAHEPGMDQDKNPMPAPVEHQICPAVCVLMKLSFDEEHRHAMNELGGLQAIAELLQVDCEMYGLTNDHYSITLRRYAGMALTNLTFGDVANEATLCSMKGCMRALVAQLKSESEDLQQVIASVLRNLSWRADVNSKKTLREVGSVKALMECALEVKKESTLKSVLSALWNLSAHCTENKADICAVDGALAFLVGTLTYRSQTNTLAIIESGGGILRNVSSLIATNEDHRQILRENNCLQTLLQHLKSHSLTIVSNACGTLWNLSARNPKDQEALWDMGAVSMLKNLIHSKHKMIAMGSAAALRNLMANRPAKYKDANIMSPGSSLPSLHVRKQKALEAELDAQHLSETFDNIDNLSPKASHRSKQ [chain 1 K209E] | 0.09% |
